Biological target: the molecule itself
Experiment: crystal structure

B1: E. coli glyoxylate reductase/hydroxypyruvate reductase A (EcGhrA), wild type, His6-tagged (enzyme, UniProt P75913 1-312, looked up)
chain: MDIIFYHPTFDTQWWIEALRKAIPQARVRAWKSGDNDSADYALVWHPPVEMLAGRDLKAVFALGAGVDSILSKLQAHPEMLNPSVPLFRLEDTGMGEQMQEYAVSQVLHWFRRFDDYRIQQNSSHWQPLPEYHREDFTIGILGAGVLGSKVAQSLQTWRFPLRCWSRTRKSWPGVQSFAGREELSAFLSQCRVLINLLPNTPETVGIINQQLLEKLPDGAYLLNLARGVHVVEDDLLAALDSGKVKGAMLDVFNREPLPPESPLWQHPRVTITPHVAAITRPAEAVEYISRTIAQLEKGERVCGQVDRARGY
  binding result: binds

From article doi:10.1101/2022.04.02.486822 (bioRxiv, 2022)
